IntAct's records for PubMed 24525235

B1: Twist-related protein 1 (Homo sapiens), Q15672 (parent)
chain: MMQDVSSSPVSPADDSLSNSEEEPDRQQPPSGKRGGRKRRSSRRSAGGGAGPGGAAGGGVGGGDEPGSPAQGKRGKKSAGCGGGGGAGGGGGSSSGGGSPQSYEELQTQRVMANVRERQRTQSLNEAFAALRKIIPTLPSDKLSKIQTLKLAARYIDFLYQVLQSDELDSKMASCSYVAHERLSYAFSVWRMEGAWSMSASH

Variants of: B1
Settings: with BRD4, O60885-1

effect of a mutation on the interaction | Variant
disrupting interaction strength | K73R;K76R
decreasing interaction strength | K76R
decreasing interaction strength | K73R
